PMC6130949, “The rational design of affinity-attenuated OmCI for the purification of complement C5” (The Journal of Biological Chemistry, 2018)
Where “and” joins values, the source holds several entries; their conditions need not be identical. Identical values can stand only once.

Key:
[1] = target: OmCI E141A/R47A (Ornithodoros moubata) (UniProt Q5YD59); test: SPR; multicycle kinetics, Biacore 8K; OmCI biotinylated on the N-terminal AVI tag and captured on an SA streptavidin chip (20-100 RU); C5 as analyte, 7-point 3-fold titration from 250 nM in HBS-EP, 30 ul/min, contact 240 s, dissociation 3600 s; regeneration with 0.1 M citric acid pH 2.0; single-site binding model
[2] = target: Wildtype OmCI (Ornithodoros moubata) (UniProt Q5YD59); test: as above
[3] = target: OmCI E141A (Ornithodoros moubata) (UniProt Q5YD59); test: as above
[4] = target: OmCI E141A/H164A (Ornithodoros moubata) (UniProt Q5YD59); test: as above
[5] = target: OmCI D167A (Ornithodoros moubata) (UniProt Q5YD59); test: SPR; single-cycle kinetics, Biacore 8K; OmCI amine coupled to a CM5 chip (~50 RU); C5 (CompTech) as analyte, 9-point 3-fold titration from 500 nM in HBS-EP, 40 ul/min, contact 230 s, dissociation 900 s; single-site binding model
[6] = target: OmCI E141A/L140G (Ornithodoros moubata) (UniProt Q5YD59); test: as above
[7] = target: OmCI E141A/R47A (Ornithodoros moubata) (UniProt Q5YD59); test: as above
[8] = target: OmCI E141A (Ornithodoros moubata) (UniProt Q5YD59); test: as above
[9] = target: OmCI H117A (Ornithodoros moubata) (UniProt Q5YD59); test: as above
[10] = target: OmCI E141A/R47A/H164A/L140G (Ornithodoros moubata) (UniProt Q5YD59); test: as above
[11] = target: OmCI E141A/H164A (Ornithodoros moubata) (UniProt Q5YD59); test: as above
[12] = target: OmCI L140G (Ornithodoros moubata) (UniProt Q5YD59); test: as above
[13] = target: OmCI R47A (Ornithodoros moubata) (UniProt Q5YD59); test: as above
[14] = target: OmCI M134G (Ornithodoros moubata) (UniProt Q5YD59); test: as above
[15] = target: OmCI E141A/R47A/L140G (Ornithodoros moubata) (UniProt Q5YD59); test: as above
[16] = target: OmCI H164A (Ornithodoros moubata) (UniProt Q5YD59); test: as above
[17] = target: OmCI F36W (Ornithodoros moubata) (UniProt Q5YD59); test: as above
[18] = target: Wildtype OmCI (Ornithodoros moubata) (UniProt Q5YD59); test: differential scanning calorimetry; C5 (CompTech) and OmCI mixed in 1:1.25 molar ratio, at least 6 h at 4 °C, PBS; heated 10-100 °C at 1 °C/min; n = 1
[19] = target: Complement component C5 from human serum (human (endogenous in human serum))
[20] = target: T1, Complement component C5 (UniProt P01031 19-673; P01031 678-1676); test: SPR; multicycle kinetics, Biacore 8K; biotinylated OmCI captured by its N-terminal AVI tag on an SA streptavidin chip; C5 as analyte, 7-point 3-fold titration from 250 nM in HBS-EP, 30 ul/min, contact 240 s, dissociation 3600 s; single-site binding model; values of the individual occasions (n=1 to n=4); settings: both partners purified
T1 construct: complement C5 beta chain; complement C5 alpha chain; Commercial C5 from CompTech; source: bought: CompTech
T1 sequence (P01031 19-673, chain 1 of 2): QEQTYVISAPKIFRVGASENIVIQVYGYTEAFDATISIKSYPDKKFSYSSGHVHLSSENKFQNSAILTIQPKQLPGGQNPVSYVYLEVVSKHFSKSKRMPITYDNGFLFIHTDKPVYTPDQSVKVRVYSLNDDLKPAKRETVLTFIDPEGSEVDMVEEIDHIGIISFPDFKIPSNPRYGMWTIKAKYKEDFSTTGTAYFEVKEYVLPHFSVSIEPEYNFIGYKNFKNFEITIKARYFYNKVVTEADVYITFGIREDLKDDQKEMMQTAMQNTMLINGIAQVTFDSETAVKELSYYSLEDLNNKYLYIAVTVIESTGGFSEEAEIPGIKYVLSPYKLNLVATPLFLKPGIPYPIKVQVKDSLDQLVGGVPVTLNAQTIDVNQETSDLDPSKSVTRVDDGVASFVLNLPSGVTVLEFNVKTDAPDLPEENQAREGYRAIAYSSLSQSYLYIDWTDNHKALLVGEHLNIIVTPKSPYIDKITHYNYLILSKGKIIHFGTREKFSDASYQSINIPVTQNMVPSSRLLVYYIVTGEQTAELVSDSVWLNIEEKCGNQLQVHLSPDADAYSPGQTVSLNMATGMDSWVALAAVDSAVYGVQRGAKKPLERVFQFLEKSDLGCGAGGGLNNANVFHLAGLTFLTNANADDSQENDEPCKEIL
T1 sequence (P01031 678-1676, chain 2 of 2): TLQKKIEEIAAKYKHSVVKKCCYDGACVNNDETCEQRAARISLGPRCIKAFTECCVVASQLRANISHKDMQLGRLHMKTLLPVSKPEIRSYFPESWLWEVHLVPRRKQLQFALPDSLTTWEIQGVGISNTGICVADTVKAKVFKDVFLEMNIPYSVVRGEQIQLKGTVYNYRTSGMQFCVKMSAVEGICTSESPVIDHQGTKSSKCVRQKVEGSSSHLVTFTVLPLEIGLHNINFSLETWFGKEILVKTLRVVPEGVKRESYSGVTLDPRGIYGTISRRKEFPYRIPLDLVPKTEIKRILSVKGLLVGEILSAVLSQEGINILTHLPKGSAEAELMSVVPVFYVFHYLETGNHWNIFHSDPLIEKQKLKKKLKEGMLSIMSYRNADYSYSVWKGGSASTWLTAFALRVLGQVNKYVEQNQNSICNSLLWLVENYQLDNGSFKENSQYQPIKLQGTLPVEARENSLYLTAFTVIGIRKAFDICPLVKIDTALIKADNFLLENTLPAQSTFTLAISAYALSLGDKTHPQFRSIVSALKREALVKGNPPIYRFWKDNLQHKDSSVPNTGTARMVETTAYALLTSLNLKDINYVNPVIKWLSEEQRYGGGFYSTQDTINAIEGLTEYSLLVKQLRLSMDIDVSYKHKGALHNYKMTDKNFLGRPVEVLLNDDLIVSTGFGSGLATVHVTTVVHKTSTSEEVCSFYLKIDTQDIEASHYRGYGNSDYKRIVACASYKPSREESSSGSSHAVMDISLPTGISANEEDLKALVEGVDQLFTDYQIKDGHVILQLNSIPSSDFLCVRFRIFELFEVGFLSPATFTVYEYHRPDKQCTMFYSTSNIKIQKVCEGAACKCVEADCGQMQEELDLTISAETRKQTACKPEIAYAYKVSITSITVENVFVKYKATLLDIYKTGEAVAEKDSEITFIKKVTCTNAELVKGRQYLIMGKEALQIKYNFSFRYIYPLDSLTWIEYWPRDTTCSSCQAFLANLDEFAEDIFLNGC

Which results are given for “Complement component C5 (CompTech) (natural protein)”?
Kd [1]: 13.1 nM; koff [1]: 0.0318 s⁻¹; kon [1]: 3.01e+06 M⁻¹ s⁻¹; Kd [2]: < 0.1 nM; koff [2]: < 1e-05 s⁻¹; kon [2]: 588000 M⁻¹ s⁻¹; stoichiometry N [2]: < 1; Kd [3]: 0.709 nM; koff [3]: 0.000304 s⁻¹; kon [3]: 481000 M⁻¹ s⁻¹; Kd [4]: 4.09 nM; koff [4]: 0.00406 s⁻¹; kon [4]: 1.13e+06 M⁻¹ s⁻¹; approximate fold change in koff relative to WT OmCI [5]: 2.4 fold; approximate fold change in koff relative to WT OmCI [6]: 31.3 fold; approximate fold change in koff relative to WT OmCI [7]: 973 fold; approximate fold change in koff relative to WT OmCI [8]: 29.1 fold; approximate fold change in koff relative to WT OmCI [9]: 1.1 fold; approximate fold change in koff relative to WT OmCI [10]: 5500 fold; approximate fold change in koff relative to WT OmCI [11]: 197 fold; approximate fold change in koff relative to WT OmCI [12]: 1 fold; approximate fold change in koff relative to WT OmCI [13]: 4.1 fold; approximate fold change in koff relative to WT OmCI [14]: 229 fold; approximate fold change in koff relative to WT OmCI [15]: 1270 fold; approximate fold change in koff relative to WT OmCI [16]: 3.5 fold; approximate fold change in koff relative to WT OmCI [17]: 2.6 fold; ΔTm of the main C5 unfolding peak on complexing [18]: 8.6 °C

With “Complement component C5 from human serum (natural protein)” as the molecule, how does the Kd [2] read?
The Kd was under 0.1 nM.

How did the pIC50, alternative pathway (AP) complement activation ELISA (inhibition of MAC formation), OmCI titrated from 5 uM in human serum [19] turn out when “OmCI E141A (from UniProt Q5YD59 19-168) (natural protein)” was run?
The pIC50, alternative pathway (AP) complement activation ELISA (inhibition of MAC formation), OmCI titrated from 5 uM in human serum was < 8.9 −log M.

With “OmCI E141A/H164A (from UniProt Q5YD59 19-168) (natural protein)” as the molecule, how does the pIC50, alternative pathway (AP) complement activation ELISA (inhibition of MAC formation), OmCI titrated from 5 uM in human serum [19] read?
Its pIC50, alternative pathway (AP) complement activation ELISA (inhibition of MAC formation), OmCI titrated from 5 uM in human serum is 8.5 −log M.

With “OmCI E141A/R47A (from UniProt Q5YD59 19-168) (natural protein)” as the molecule, how does the pIC50, alternative pathway (AP) complement activation ELISA (inhibition of MAC formation), OmCI titrated from 5 uM in human serum [19] read?
The pIC50, alternative pathway (AP) complement activation ELISA (inhibition of MAC formation), OmCI titrated from 5 uM in human serum was 8 −log M.

How did the pIC50, alternative pathway (AP) complement activation ELISA (inhibition of MAC formation), OmCI titrated from 5 uM in human serum [19] turn out when “OmCI H164A (from UniProt Q5YD59 19-168) (natural protein)” was run?
Its pIC50, alternative pathway (AP) complement activation ELISA (inhibition of MAC formation), OmCI titrated from 5 uM in human serum is < 8.8 −log M.

How did the pIC50, alternative pathway (AP) complement activation ELISA (inhibition of MAC formation), OmCI titrated from 5 uM in human serum [19] turn out when “OmCI R47A (from UniProt Q5YD59 19-168) (natural protein)” was run?
Its pIC50, alternative pathway (AP) complement activation ELISA (inhibition of MAC formation), OmCI titrated from 5 uM in human serum is < 9 −log M.

“Wildtype OmCI (from UniProt Q5YD59 19-168) (natural protein)” was tested. Which pIC50, alternative pathway (AP) complement activation ELISA (inhibition of MAC formation), OmCI titrated from 5 uM in human serum [19] did it give?
Its pIC50, alternative pathway (AP) complement activation ELISA (inhibition of MAC formation), OmCI titrated from 5 uM in human serum is < 9 −log M.

B1: Wild-type OmCI with N-terminal 10xHis, TEV site and AVI tag (natural protein)
chain: DSESDCTGSEPVDAFQAFSEGKEAYVLVRSTDPKARDCLKGEPAGEKQDNTLPVMMTFKNGTDWASTDWTFTLDGAKVTATLGNLTQNREVVYDSQSHHCHVDKVEKEVPDYEMWMLDAGGLEVEVECCRQKLEELASGRNQMYPHLKDC
modifications: biotin on the N-terminal AVI tag (Bir-A)
notes: OmCI of Ornithodoros moubata, UniProt Q5YD59, without its signal peptide; No TEV cleavage is described; also called wt OmCI; OmCI WT; source: ExpiHEK 293, transfected, purified from supernatant (nickel-Sepharose Excel); not shown: AVI tag, N-terminal, kept
Which results are given for B1?
Kd [20]: < 0.1 nM; koff [20]: < 1e-05 s⁻¹; kon [20]: 384000 M⁻¹ s⁻¹ and 400000 M⁻¹ s⁻¹ and 1.14e+06 M⁻¹ s⁻¹ and 432000 M⁻¹ s⁻¹

B2: OmCI E141A/R47A with N-terminal 10xHis, TEV site and AVI tag (natural protein)
chain: DSESDCTGSEPVDAFQAFSEGKEAYVLVASTDPKARDCLKGEPAGEKQDNTLPVMMTFKNGTDWASTDWTFTLDGAKVTATLGNLTQNREVVYDSQSHHCHVDKVEKEVPDYEMWMLDAGGLAVEVECCRQKLEELASGRNQMYPHLKDC
modifications: biotin on the N-terminal AVI tag (Bir-A)
notes: OmCI of Ornithodoros moubata, UniProt Q5YD59, without its signal peptide; source: ExpiHEK 293, transfected, purified from supernatant (nickel-Sepharose Excel); not shown: AVI tag, N-terminal, kept
With B2 as the molecule, how does the Kd [20] read?
The Kd was 17.6 nM and 7.26 nM and 9.55 nM and 18 nM.

B3: OmCI E141A/H164A with N-terminal 10xHis, TEV site and AVI tag (natural protein)
chain: DSESDCTGSEPVDAFQAFSEGKEAYVLVRSTDPKARDCLKGEPAGEKQDNTLPVMMTFKNGTDWASTDWTFTLDGAKVTATLGNLTQNREVVYDSQSHHCHVDKVEKEVPDYEMWMLDAGGLAVEVECCRQKLEELASGRNQMYPALKDC
modifications: biotin on the N-terminal AVI tag (Bir-A)
notes: as for B2
B3 was tested. Which Kd [20] did it give?
Its Kd is 5.13 nM and 5.35 nM and 1.8 nM.

And the koff [20]?
Its koff is 0.00438 s⁻¹ and 0.00489 s⁻¹ and 0.00292 s⁻¹.

What about the kon [20] of the same molecule?
Its kon is 855000 M⁻¹ s⁻¹ and 913000 M⁻¹ s⁻¹ and 1.62e+06 M⁻¹ s⁻¹.

B4: OmCI E141A with N-terminal 10xHis, TEV site and AVI tag (natural protein)
chain: DSESDCTGSEPVDAFQAFSEGKEAYVLVRSTDPKARDCLKGEPAGEKQDNTLPVMMTFKNGTDWASTDWTFTLDGAKVTATLGNLTQNREVVYDSQSHHCHVDKVEKEVPDYEMWMLDAGGLAVEVECCRQKLEELASGRNQMYPHLKDC
modifications: biotin on the N-terminal AVI tag (Bir-A)
notes: OmCI of Ornithodoros moubata, UniProt Q5YD59, without its signal peptide; also called OmCI WT E141A; source: ExpiHEK 293, transfected, purified from supernatant (nickel-Sepharose Excel); not shown: AVI tag, N-terminal, kept
How did the Kd [20] turn out when B4 was run?
Its Kd is 0.896 nM and 0.395 nM and 0.707 nM and 0.837 nM.

And the koff [20]?
The koff was 0.000307 s⁻¹ and 0.000328 s⁻¹ and 0.000273 s⁻¹.

What about the kon [20] of the same molecule?
Its kon is 343000 M⁻¹ s⁻¹ and 830000 M⁻¹ s⁻¹ and 367000 M⁻¹ s⁻¹ and 386000 M⁻¹ s⁻¹.
